Measurements: patent US20230181756A1 (Novartis, published 2023)

Legend:
[1] = target: T1, human CCR7 (human, UniProt P32248 25-378); test: cell-based or functional assay
T1 sequence: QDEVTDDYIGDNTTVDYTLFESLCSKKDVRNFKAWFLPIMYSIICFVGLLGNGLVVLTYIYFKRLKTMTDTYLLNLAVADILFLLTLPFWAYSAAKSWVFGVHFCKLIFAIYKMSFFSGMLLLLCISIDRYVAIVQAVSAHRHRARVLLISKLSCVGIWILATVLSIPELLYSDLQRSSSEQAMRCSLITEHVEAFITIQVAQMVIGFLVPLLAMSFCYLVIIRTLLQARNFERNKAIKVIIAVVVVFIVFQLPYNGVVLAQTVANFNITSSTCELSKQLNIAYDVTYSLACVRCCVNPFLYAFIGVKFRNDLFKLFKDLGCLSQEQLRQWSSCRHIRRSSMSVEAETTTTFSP

[2] = target: T1, human CCR7; test: FACS binding on CCR7 expressing cells, against the unconjugated antibody
[3] = target: T1, human CCR7; test: cell-based or functional assay; remark: listed apart in the source
[4] = target: T1, human CCR7; test: FACS titration, NIH3T3 cells expressing human CCR7
[5] = target: T1, human CCR7; test: cell-based or functional assay; remark: listed apart in the source
[6] = target: T2, cynomolgus monkey CCR7 (cynomolgus monkey, UniProt P32248 25-378 (human entry)); test: FACS titration, cynomolgus CD4+ T cells
T2 construct: also called Cyno CCR7; NIH3T3.cyno CCR7
T2 sequence: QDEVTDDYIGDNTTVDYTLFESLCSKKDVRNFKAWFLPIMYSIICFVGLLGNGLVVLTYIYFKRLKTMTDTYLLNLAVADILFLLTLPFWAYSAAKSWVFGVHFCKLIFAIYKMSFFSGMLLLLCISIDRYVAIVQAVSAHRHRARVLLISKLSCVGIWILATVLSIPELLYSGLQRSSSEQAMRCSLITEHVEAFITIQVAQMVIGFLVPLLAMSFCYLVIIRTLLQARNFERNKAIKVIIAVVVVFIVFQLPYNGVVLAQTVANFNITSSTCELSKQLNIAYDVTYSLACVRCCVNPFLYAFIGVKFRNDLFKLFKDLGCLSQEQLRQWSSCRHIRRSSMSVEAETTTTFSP

[7] = target: T1, human CCR7; test: FACS titration, human CD4+ T cells from PBMC
[8] = target: T3, mouse CCR7 (mouse, UniProt P47774 25-378); test: FACS titration, CD-1 mouse CD4+ T cells
T3 construct: also called NIH3T3.mouse CCR7
T3 sequence: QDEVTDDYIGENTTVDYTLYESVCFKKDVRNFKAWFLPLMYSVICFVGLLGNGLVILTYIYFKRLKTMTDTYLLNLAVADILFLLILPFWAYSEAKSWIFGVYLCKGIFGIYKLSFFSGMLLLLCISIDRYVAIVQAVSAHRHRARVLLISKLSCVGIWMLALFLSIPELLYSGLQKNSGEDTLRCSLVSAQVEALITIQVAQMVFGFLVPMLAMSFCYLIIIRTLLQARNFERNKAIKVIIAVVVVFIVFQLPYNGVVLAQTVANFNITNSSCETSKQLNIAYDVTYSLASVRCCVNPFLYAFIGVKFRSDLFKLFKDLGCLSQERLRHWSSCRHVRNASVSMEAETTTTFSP

[9] = target: T4, rat CCR7 (rat, UniProt P47774 25-378 (mouse entry)); test: FACS titration, Wistar rat CD4+ T cells
T4 construct: also called NIH3T3.rat CCR7
T4 chain: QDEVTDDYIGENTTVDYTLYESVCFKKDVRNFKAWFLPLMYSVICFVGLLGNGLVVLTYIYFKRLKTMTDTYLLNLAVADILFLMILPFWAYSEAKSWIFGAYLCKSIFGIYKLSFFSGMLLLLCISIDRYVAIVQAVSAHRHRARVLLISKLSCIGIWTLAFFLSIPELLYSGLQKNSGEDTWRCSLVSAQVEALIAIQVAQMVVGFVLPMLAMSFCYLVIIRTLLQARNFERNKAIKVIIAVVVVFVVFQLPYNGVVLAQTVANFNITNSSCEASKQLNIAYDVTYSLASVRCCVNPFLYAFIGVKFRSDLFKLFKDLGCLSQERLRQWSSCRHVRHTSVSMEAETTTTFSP

[10] = target: T1, human CCR7; test: cell-based or functional assay; remark: listed apart in the source
[11] = target: T1, human CCR7; test: cell-based or functional assay; remark: listed apart in the source
[12] = target: T1, human CCR7; test: FACS titration, human CD4+ T cells (receptor density <2,000)

B1: 674J13.CysMab.DAPA.AURIX2 (antibody, human IgG1, kappa, V domains shown)
VH: DVQLQESGPGLVKPSQTLSLTCTVSGYSITSGYSWHWIRQHPGKGLEWMAHIHSSGSTNYNPSLKSRITISRDTSKNQFSLKLSSVTAADTAVYYCARGGVQAFAYWGQGTLVTVSS
VL: EIVLTQSPATLSASPGERVTMSCSASSSVIYMHWYQQKPGQAPRRWIYDTSKLASGVPARFSGSGSGTDYTLTISSMEPEDAAVYYCQQWSSNPLTFGQGTKLEIKR
modifications: DAR LC 0.03; AURIX2 on engineered cysteines, DAR HC 3.93
notes: also called 674J13.DAPA.AURIX2
ADC activity in cell viability assay; IC50 (nM); DEL cells [1]: 0.117 nM | ADC activity in cell viability assay; IC50 (nM); KE97 cells [1]: 0.0658 nM | difference of geometric mean fluorescence intensity from the unconjugated antibody [2]: ≤ 20% | ADC activity in cell viability assay; IC50 (nM); CML-T1 cells (CCR7 receptor levels ~29,000) [3]: 3.78 nM | ADC activity in cell viability assay; IC50 (nM); DEL cells (CCR7 receptor levels ~100,000) [3]: 0.242 nM | ADC activity in cell viability assay; IC50 (nM); KE97 cells (CCR7 receptor levels ~100,000) [3]: 0.102 nM | ADC activity in cell viability assay; IC50 (nM); SR786 cells (CCR7 receptor levels ~28,000) [3]: 2.74 nM

B2: 674J13 non-humanized CysMab (antibody, human IgG1, kappa, V domains shown)
VH: DVQLQESGPDLVKPSQSLSLTCTVTGYSITSGYSWHWIRQFPGNKLEWMAHIHSSGSTNYNPSLKSRISIIRDTSKNLFFLQLNSVTTEDTATYYCARGGVQAFAYWGQGTLVTVSA
VL: QIVLTQSPAIMSASPGEKVTMTCSASSSVIYMHWYQQKSGTSPKRWIYDTSKLASGVPARFSGSGSGTSYSLTISSMEAEDAATYYCQQWSSNPLTFGAGTTLELKR
notes: Chimeric human IgG1 kappa with CysMab cysteines and wild type Fc; also called Parental 674J13 hIgG1 CysMab; Non-humanized CysMab antibody 674J13
EC50 [4]: 3600 pM | ADCC activity; IC50 (nM); reporter assay, JVM2 targets and Jurkat-V158 effectors [5]: 1.09 nM | EC50 [6]: 450 pM | EC50 [7]: 390 to 1400 pM | binding result [8]: no binding | binding result [9]: no binding

B3: Parental 674J13 (antibody, IgG1, V domains shown)
VH: DVQLQESGPDLVKPSQSLSLTCTVTGYSITSGYSWHWIRQFPGNKLEWMAHIHSSGSTNYNPSLKSRISIIRDTSKNLFFLQLNSVTTEDTATYYCARGGVQAFAYWGQGTLVTVSA
VL: QIVLTQSPAIMSASPGEKVTMTCSASSSVIYMHWYQQKSGTSPKRWIYDTSKLASGVPARFSGSGSGTSYSLTISSMEAEDAATYYCQQWSSNPLTFGAGTTLELK
pgADC cytotoxic assay, Anti-mFc.MMAF, AMAX (%) [10]: 102% | pgADC cytotoxic assay, Anti-mFc.MMAF, IC50 [10]: 137 pM | pgADC cytotoxic assay, Fab-ZAP, AMAX (%) [10]: 31% | pgADC cytotoxic assay, Fab-ZAP, IC50 [10]: 6120 pM

B4: Parental 506E15 (antibody, V domains shown)
VH: EVMLVESGGGLVKPGGSLKLSCAASGFTFSSYAMSWIRQTPEKRLEWVATISSGGSFTYYPDSVKGRFTISRDNVKNTLYLQMSSLRSEDTAMYYCARRASTVVGTDFDVWGAGTTVTVSS
VL: DIQMTQSPSSLSASLGERVSLTCRASQDIGSSLNWLQQEPDGTIKRLIYATSSLDSGVPKRFSGSRSGSDYSLTISSLESEDFVVYYCLQYASSPPTFGGGTKLEIK
ADCC reporter assay, 506E15 IC50 (nM), ALL-SIL cells (CCR7 receptor # 6,200) [11]: 0.008 nM | ADCC reporter assay, 506E15 IC50 (nM), CMLT-1 cells (CCR7 receptor # 29,000) [11]: 0.011 nM | ADCC reporter assay, 506E15 IC50 (nM), DEL cells (CCR7 receptor # 62,000) [11]: 0.074 nM | ADCC reporter assay, 506E15 IC50 (nM), DND-41 cells (CCR7 receptor # 1,700) [11]: 0.002 nM | ADCC reporter assay, 506E15 IC50 (nM), JVM2 cells (CCR7 receptor # 66,500) [11]: 0.046 nM | ADCC reporter assay, 506E15 IC50 (nM), Jurkat V158 cells (CCR7 receptor # 3,400) [11]: 0.004 nM | ADCC reporter assay, 506E15 IC50 (nM), MOTN-1 cells (CCR7 receptor # 64,600) [11]: 0.077 nM | ADCC reporter assay, 506E15 IC50 (nM), PEER cells (CCR7 receptor # 8,700) [11]: 0.038 nM | ADCC reporter assay, 506E15 IC50 (nM), SR786 cells (CCR7 receptor # 27,800) [11]: 0.011 nM | pgADC cytotoxic assay, Anti-mFc.MMAF, AMAX (%) [10]: 95% | pgADC cytotoxic assay, Anti-mFc.MMAF, IC50 [10]: 70 pM | pgADC cytotoxic assay, Fab-ZAP, AMAX (%) [10]: 60% | pgADC cytotoxic assay, Fab-ZAP, IC50 [10]: 135 pM

B5: 506E15 non-humanized CysMab (antibody, human IgG1, kappa, V domains shown)
VH: EVMLVESGGGLVKPGGSLKLSCAASGFTFSSYAMSWIRQTPEKRLEWVATISSGGSFTYYPDSVKGRFTISRDNVKNTLYLQMSSLRSEDTAMYYCARRASTVVGTDFDVWGAGTTVTVSS
VL: DIQMTQSPSSLSASLGERVSLTCRASQDIGSSLNWLQQEPDGTIKRLIYATSSLDSGVPKRFSGSRSGSDYSLTISSLESEDFVVYYCLQYASSPPTFGGGTKLEIKR
notes: Chimeric human IgG1 kappa with CysMab cysteines and wild type Fc; also called Parental 506E15 hIgG1 CysMab; Non-humanized CysMab antibody 506E15
ADCC activity; IC50 (nM); reporter assay, JVM2 targets and Jurkat-V158 effectors [5]: 0.131 nM | EC50 [6]: 6600 pM | EC50 [7]: 4600 to 9700 pM | binding result [8]: no binding | binding result [9]: no binding

B6: Parental 121G12 (antibody, V domains shown)
VH: EVQLVESGGGLVKPGGSLKLSCAASGFTFSTYAMSWVRQTPEKRLEWVATISDGGSYSYYPDNVKGRFTISRDNAKNNLYLQMSHLKSEDTAMYYCARRGSRYEEYYVMDYWGQGTSVTVSS
VL: DIVLTQSPATLSVTPGDSVSLSCRASQSISNNLHWYQQKSHESPKLLIKYASQSISGIPSRFSGSGSGTDFTLSINSVETEDFGMYFCQQSNSWLTFGAGTKLGLK
pgADC cytotoxic assay, Anti-mFc.MMAF, AMAX (%) [10]: 104% | pgADC cytotoxic assay, Anti-mFc.MMAF, IC50 [10]: 55 pM | pgADC cytotoxic assay, Fab-ZAP, AMAX (%) [10]: 43% | pgADC cytotoxic assay, Fab-ZAP, IC50 [10]: 64 pM

B7: 506E15.CysMab.DAPA.AURIX2 (antibody, human IgG1, kappa, V domains shown)
VH: EVQLVESGGGLVKPGGSLRLSCAASGFTFSSYAMSWIRQAPGKGLEWVATISSGGSFTYYPDSVKGRFTISRDNAKNSLYLQMNSLRAEDTAVYYCARRASTVVGTDFDVWGQGTTVTVSS
VL: DIQMTQSPSSLSASVGDRVTLTCRASQDIGSSLNWLQQKPGKAIKRLIYATSSLDSGVPSRFSGSRSGTDYTLTISSLQPEDFVVYYCLQYASSPPTFGGGTKLEIKR
modifications: AURIX2 on engineered cysteines, DAR 3.80
notes: also called 506E15.DAPA.AURIX2
ADC activity in cell viability assay; IC50 (nM); DEL cells [1]: 0.0084 nM | ADC activity in cell viability assay; IC50 (nM); KE97 cells [1]: 0.0131 nM | difference of geometric mean fluorescence intensity from the unconjugated antibody [2]: ≤ 20%

B8: Parental 684E12 (antibody, IgG1, V domains shown)
VH: EVHLVESGGGLVKPGGSLKLSCAASGFTFSNFAMSWVRQTPEKRLEWVATISTGGTYTYYPDSVKGRFTISRDNAKKTLYLQMSSLRSEDTAMYYCTRRGYDGVDKWGQGTTLTVSS
VL: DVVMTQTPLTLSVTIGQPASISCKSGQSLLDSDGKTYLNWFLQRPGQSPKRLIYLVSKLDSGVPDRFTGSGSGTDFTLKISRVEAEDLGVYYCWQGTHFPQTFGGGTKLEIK
pgADC cytotoxic assay, Anti-mFc.MMAF, AMAX (%) [10]: 80% | pgADC cytotoxic assay, Anti-mFc.MMAF, IC50 [10]: 214 pM | pgADC cytotoxic assay, Fab-ZAP, AMAX (%) [10]: 33% | pgADC cytotoxic assay, Fab-ZAP, IC50 [10]: 2600 pM

B9: 684E12.SMCC.DM1 (antibody, V domains shown)
VH: EVHLVESGGGLVKPGGSLKLSCAASGFTFSNFAMSWVRQTPEKRLEWVATISTGGTYTYYPDSVKGRFTISRDNAKKTLYLQMSSLRSEDTAMYYCTRRGYDGVDKWGQGTTLTVSS
VL: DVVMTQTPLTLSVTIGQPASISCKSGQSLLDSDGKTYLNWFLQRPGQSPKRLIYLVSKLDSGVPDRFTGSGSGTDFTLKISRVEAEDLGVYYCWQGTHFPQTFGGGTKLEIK
modifications: SMCC-DM1 on lysines of the antibody, DAR 2.6
notes: also called parental 684E12.SMCC.DM1
difference of geometric mean fluorescence intensity from the unconjugated antibody [2]: ≤ 20%

B10: Humanized 684E12 hIgG1 DAPA CysMab (antibody, V domains shown)
VH: EVQLVESGGGLVKPGGSLRLSCAASGFTFSNFAMSWVRQAPGKGLEWVSTISTGGTYTYYPDSVKGRFTISRDNAKNSLYLQMNSLRAEDTAVYYCARRGYSGVDKWGQGTTVTVSS
VL: DVVMTQSPLSLPVTLGQPASISCKSGQSLLDSTGKTYLNWFLQRPGQSPRRLIYLVSKLDSGVPDRFSGSGSGTDFTLKISRVEAEDVGVYYCWQGTHFPQTFGGGTKLEIKR
notes: also called Humanized CysMab.DAPA antibody 684E12
EC50 [12]: ~7000 pM
